Experimental data reported in patent US8575303.

What was measured:
[1] = molecular target: unlabeled anti-CD4 (RPA-T4 clone, BD Biosciences) raised in mouse against the human antigen; test: flow cytometry on Cyto-trol cells pre-labeled with mouse anti-CD4 primary (Example 36, FIG. 20B)
Mouse IgG [2] = test: Luminex xMap bead sandwich assay, mouse IgG titration, detection with streptavidin-conjugated polymer
Mouse IgG [3] = test: Luminex xMap bead sandwich assay, mouse IgG titration, detection with streptavidin-phycoerythrin at 4 ug/mL

Row | stain index, fold over a Pacific Blue control conjugate of the same antibody [1] [fold] | MFI/zero (fluorescence highest point in standard curve/fluorescence zero concentration of analyte) (Mouse IgG [2]) | MFI/zero (fluorescence highest point in standard curve/fluorescence zero concentration of analyte) (Mouse IgG [3]) | Substance
1 | > 4 |  |  | 405 polymer-goat anti-mouse conjugate (amine-functionalized 405 polymer conjugated to goat anti-mouse IgG purified antibody)
2 |  | 26.6 | 21.8 | Donkey anti-mouse IgG antibody covalently conjugated to xMap beads
